Drawing on PMC10343800, “A Novel LSTM-Based Machine Learning Model for Predicting the Activity of Food Protein-Derived Antihypertensive Peptides” (Molecules, 2023), this text covers IC50 for 48 molecules.

Ends that are not written are not given here. Peptide text beside a SMILES is read from it.

T1 sequence (P12821 30-1306, species assumed): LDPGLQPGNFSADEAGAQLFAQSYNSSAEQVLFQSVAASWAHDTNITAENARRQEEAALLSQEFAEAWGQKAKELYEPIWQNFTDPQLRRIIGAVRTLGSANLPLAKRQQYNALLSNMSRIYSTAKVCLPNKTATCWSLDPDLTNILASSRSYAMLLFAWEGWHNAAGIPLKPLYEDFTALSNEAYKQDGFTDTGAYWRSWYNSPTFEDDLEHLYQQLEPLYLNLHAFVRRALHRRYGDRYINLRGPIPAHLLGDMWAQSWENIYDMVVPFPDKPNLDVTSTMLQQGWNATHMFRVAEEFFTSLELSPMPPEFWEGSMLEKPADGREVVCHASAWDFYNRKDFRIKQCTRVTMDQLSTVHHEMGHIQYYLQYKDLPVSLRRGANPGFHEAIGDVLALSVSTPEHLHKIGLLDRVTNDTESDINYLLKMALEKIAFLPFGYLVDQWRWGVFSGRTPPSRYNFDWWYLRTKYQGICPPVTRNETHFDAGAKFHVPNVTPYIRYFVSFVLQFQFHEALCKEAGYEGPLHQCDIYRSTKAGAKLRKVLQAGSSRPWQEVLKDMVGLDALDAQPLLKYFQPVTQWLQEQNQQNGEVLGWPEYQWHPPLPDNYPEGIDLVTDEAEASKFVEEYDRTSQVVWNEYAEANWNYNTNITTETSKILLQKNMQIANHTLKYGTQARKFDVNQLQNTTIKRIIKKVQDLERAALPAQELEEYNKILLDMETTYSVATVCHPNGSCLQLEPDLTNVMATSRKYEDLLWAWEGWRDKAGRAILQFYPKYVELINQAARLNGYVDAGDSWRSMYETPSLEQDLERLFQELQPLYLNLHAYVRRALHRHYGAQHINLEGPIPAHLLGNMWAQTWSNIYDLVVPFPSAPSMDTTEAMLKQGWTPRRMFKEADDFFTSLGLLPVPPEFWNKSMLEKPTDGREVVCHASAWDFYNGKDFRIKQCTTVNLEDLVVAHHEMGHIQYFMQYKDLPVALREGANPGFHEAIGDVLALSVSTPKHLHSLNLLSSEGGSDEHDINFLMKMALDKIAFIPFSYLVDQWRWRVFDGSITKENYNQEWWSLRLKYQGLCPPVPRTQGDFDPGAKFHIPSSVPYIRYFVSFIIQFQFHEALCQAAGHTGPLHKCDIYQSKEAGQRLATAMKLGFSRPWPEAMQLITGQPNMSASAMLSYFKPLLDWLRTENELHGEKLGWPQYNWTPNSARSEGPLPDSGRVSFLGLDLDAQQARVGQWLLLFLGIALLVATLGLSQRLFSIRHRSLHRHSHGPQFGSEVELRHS

One assay has as its target T1, ACE (Homo sapiens, UniProt P12821). The assay can be described thus: biochemical.
Details: not given
How it is done: An online tool (https://www.genscript.com/sms2/random_protein.html accessed on 1 March 2023) was used to randomly generate peptides in order to test the efficiency of the model. The top peptides with a small number of IC50 values were selected for synthesis. […] The peptides used for validation were synthesized by Genescript with a purity > 97%. The ACE inhibitory assay was performed according to a previous study with modifications. ACE, N-hippuryl-His-Leu tetrahydrate (HHL, Sigma-Aldrich, St. Louis, MI, USA) and the peptide samples were dissolved in 100 mM of boric acid containing 300 mM of NaCl (pH8.3). Firstly, 10 μL of the peptide solution was preincubated with 50 μL of 6.5 mM HHL at 37 °C for 5 min. Then, 5 μL of 0.1UN/mL ACE (preincubated at 37 °C) was added to the reaction system and incubated at 37 °C for another 30 min. The reaction was terminated by adding 85 μL of 1 M HCl. The concentration of hippuric acid (Hip, the reaction product) was measured by HPLC with a C18 column (5 µm, 250 mm × 4.6 mm). The sample (20 μL) was eluted by a gradient of solvent A (H2O with 0.05% TFA) and solvent B (acetonitrile with 0.05% TFA) at a flow rate of 1.2 mL/min. The absorbance at 228 nm was monitored. The concentration of HA was calculated based on its standard curve. The area under each peak was calculated, in which A = the area under the peak of the blank group (without the peptide) and B = the area under the peak of the peptide group. The ACE inhibitory ratio = (A − B)/A. The ACE inhibitory ratio of each peptide at different concentrations was measured.
On to `CC(C)C[C@H](NC(=O)[C@H](C)N)C(=O)N1CCC[C@H]1C(=O)N[C@@H](CC(=O)O)C(=O)O` [ALPD] (H-ALPD-OH), for which the IC50 is 1.55 µM.

VHLAP [VHLAP] displayed a half-inhibitory concentration (IC50) of 0.33 µM. Same read-out and setting: with IQWCA [IQWCA] the figure was 0.1 µM; with LKPDQ [LKPDQ], 0.88 µM; with VAWKL [VAWKL], 0.23 µM.

As for `N=C(N)NCCC[C@H](NC(=O)[C@H](Cc1c[nH]cn1)NC(=O)[C@H](CC(=O)O)NC(=O)[C@@H](N)Cc1c[nH]cn1)C(=O)O` [HDHR] (H-HDHR-OH), the IC50 worked out at 0.59 µM. On the same count and under the same terms, with PDFLI [PDFLI] the figure was 0.33 µM. Still for that read-out and setting: the result for `C[C@H](NC(=O)[C@H](CCCCN)NC(=O)[C@H](CC(=O)O)NC(=O)[C@@H](N)Cc1ccccc1)C(=O)O` [FDKA] (H-FDKA-OH) reads 0.6 µM; that for KLPAY [KLPAY], 0.12 µM. Regarding FALPC [FALPC], the IC50 stood at 0.16 µM.

`C[C@H](NC(=O)[C@@H]1CCCN1C(=O)CN)C(=O)N[C@@H](Cc1ccc(O)cc1)C(=O)O` [GPAY] (H-GPAY-OH) returned an IC50 of 0.37 µM.

On to `CC[C@H](C)[C@H](NC(=O)[C@@H](N)Cc1ccccc1)C(=O)O` [FI] (H-Phe-Ile-OH), for which the half-inhibitory concentration (IC50) came out at 0.31 µM. `CC(C)C[C@H](NC(=O)[C@@H](NC(=O)[C@@H](N)CC(C)C)C(C)C)C(=O)O` [LVL] (H-Leu-Val-Leu-OH) registered a 50% inhibitory concentration (IC50) of 0.32 µM.

`CC(C)[C@H](NC(=O)CN)C(=O)N1CCC[C@H]1C(=O)N[C@@H](CCCCN)C(=O)O` [GVPK] (H-GVPK-OH) gave a half-inhibitory concentration (IC50) of 0.25 µM. Same read-out and setting: the result for LKPNS [LKPNS] reads 0.5 µM; that for `CC[C@H](C)[C@H](NC(=O)[C@@H]1CCCN1C(=O)[C@H](CCCCN)NC(=O)[C@@H](N)CC(C)C)C(=O)O` [LKPI] (H-LKPI-OH), 0.39 µM. As to PLPLL [PLPLL], half-maximal inhibition (IC50) was put at 0.2 µM. Take VYHEL [VYHEL]: the IC50 worked out at 0.38 µM.

The assay is the same for the next values; noted with them: 6.5 mM HHL, 0.1 UN/mL ACE, 100 mM boric acid with 300 mM NaCl pH 8.3, 37 °C, 5 min preincubation, 30 min incubation; hippuric acid by HPLC C18, 228 nm; read-out: Experimental IC50.
Turning to `N[C@@H](Cc1c[nH]c2ccccc12)C(=O)N[C@@H](CC(=O)O)C(=O)O` [WD] (H-Trp-Asp-OH), the concentration for half-maximal inhibition (IC50) came out at 0.51 µM. The same measure, in the same setting: with `CC(C)C[C@H](NC(=O)[C@H](CCCCN)NC(=O)[C@@H](N)CC(C)C)C(=O)O` [LKL] (H-Leu-Lys-Leu-OH) the figure was 0.56 µM.

A further assay deals with T1, ACE.
Experiment: not given
To be noted: in vitro ACE inhibition; read-out: Reported IC50; cited from earlier work.
GAAELPCSADWW: the IC50 was 11 µM.

As for PAGELHP, the IC50 is 0.5 µM. Consider LDSPSEGRAPG, for which the IC50 is 17.9 µM. With KIDKVVK, the 50% inhibitory concentration (IC50) was 0.62 µM.

As for KGYGGVSLPEW, the IC50 was 0.7 µM. Consider DKVGINYW, for which the 50% inhibitory concentration (IC50) is 25.4 µM. Take LLVTLKK: the IC50 is 0.95 µM.

On to HLNVVHGN, for which the IC50 was 50.9 µM. For AFVGYVLP, the IC50 is 14.4 µM. For LVLPGELAK, the IC50 was 184 µM. In the case of WQVLPNAVPAK, the 50% inhibitory concentration (IC50) is 1010 µM. Consider VELYP, for which the 50% inhibitory concentration (IC50) was 5.22 µM. In the case of LVLPGE, the IC50 is 13.5 µM. On to IPPAYTK, for which the concentration for half-maximal inhibition (IC50) is 23.5 µM. As for ILSKLK, the IC50 is 4.02 µM.

On to LEEFCC, for which the IC50 was 1.85 µM. For TVTNPARIA, the IC50 is 14.5 µM.

LRLESF: the IC50 was 5.39 µM. With PGSGCAGTDL, the concentration for half-maximal inhibition (IC50) is 57.9 µM. With RDGGYCC, the IC50 was 0.84 µM. For EKSYELP, the IC50 was 18 µM. As for CTFSIPAQC, the half-inhibitory concentration (IC50) is 24.4 µM. Consider VDSDVVK, for which the IC50 was 8.64 µM.

Regarding DAQSAPLRVY, the IC50 was 12.2 µM. For the molecule VISDEDGVTH, the IC50 was 8.16 µM. With IISKIK, the IC50 was 1.19 µM.

Take MLPAY: the IC50 is 1.58 µM. For TFQGGlPPHGIQVER (TFQGGPPHGIQVER), the IC50 is 3.4 µM.

For orientation: IC50 means the concentration at which inhibition is half-maximal.
